The supplement of paper PMC11246515
± gives the standard deviation of the averaged measurements.

Assay: total protein half-life in vivo (active degradation + dilution); higher = more stable protein
[1] = E. coli NCM3722 delta-clpP delta-lon delta-hslV, growth: N-lim chemostat, doubling time 6 h
[2] = E. coli NCM3722 delta-clpP, growth: N-lim chemostat, doubling time 6 h
[3] = E. coli NCM3722 delta-hslV, growth: N-lim chemostat, doubling time 6 h
[4] = E. coli NCM3722 delta-lon, growth: N-lim chemostat, doubling time 6 h
[5] = E. coli NCM3722 delta-smpB, growth: N-lim chemostat, doubling time 6 h
[6] = wild type E. coli NCM3722, growth: C-lim chemostat, doubling time 3 h
[7] = wild type E. coli NCM3722, growth: C-lim chemostat, doubling time 6 h
[8] = wild type E. coli NCM3722, growth: C-lim chemostat, doubling time 12 h
[9] = wild type E. coli NCM3722, growth: N-lim chemostat, doubling time 6 h
[10] = wild type E. coli NCM3722, growth: N-lim chemostat, doubling time 12 h
[11] = wild type E. coli NCM3722, growth: P-lim chemostat, doubling time 6 h
[12] = wild type E. coli NCM3722, growth: P-lim chemostat, doubling time 12 h

With “MNQRNASMTVIGAGSYGTALAITLARNGHEVVLWGHDPEHIATLERDRCNAAFLPDVPFPDTLHLESDLATALAASRNILVVVPSHVFGEVLRQIKPLMRPDARLVWATKGLEAETGRLLQDVAREALGDQIPLAVISGPTFAKELAAGLPTAISLASTDQTFADDLQQLLHCGKSFRVYSNPDFIGVQLGGAVKNVIAIGAGMSDGIGFGANARTALITRGLAEMSRLGAALGADPATFMGMAGLGDLVLTCTDNQSRNRRFGMMLGQGMDVQSAQEKIGQVVEGYRNTKEVRELAHRFGVEMPITEEIYQVLYCGKNAREAALTLLGRARKDERSSH [P0A6S7]” the “total protein half-life in vivo” value [1] was 5.183 ± 0.013 h, the “total protein half-life in vivo” value [2] was 5.35 ± 0.8 h and the “total protein half-life in vivo” value [3] was 4.8 ± 0.097 h. For the same sequence, the “total protein half-life in vivo” value [4] was 4.88 ± 0.27 h, the “total protein half-life in vivo” value [5] was 4.73 ± 0.34 h and the “total protein half-life in vivo” value [6] was 3.3022 ± 0.00023 h. For the same sequence, the “total protein half-life in vivo” value [7] was 5.8 ± 0.063 h, the “total protein half-life in vivo” value [8] was 10.8 ± 1.8 h and the “total protein half-life in vivo” value [9] was 4.99 ± 0.28 h. The “total protein half-life in vivo” value [10] was 8.16 h, the “total protein half-life in vivo” value [11] was 5.73 ± 0.15 h and the “total protein half-life in vivo” value [12] was 12.7 ± 2.1 h.

In the case of “MNQSYGRLVSRAAIAATAMASLLLLIKIFAWWYTGSVSILAALVDSLVDIGASLTNLLVVRYSLQPADDNHSFGHGKAESLAALAQSMFISGSALFLFLTGIQHLISPTPMTDPGVGVIVTIVALICTIILVSFQRWVVRRTQSQAVRADMLHYQSDVMMNGAILLALGLSWYGWHRADALFALGIGIYILYSALRMGYEAVQSLLDRALPDEERQEIIDIVTSWPGVSGAHDLRTRQSGPTRFIQIHLEMEDSLPLVQAHMVADQVEQAILRRFPGSDVIIHQDPCSVVPREGKRSMLS”, the “total protein half-life in vivo” value [8] is reported as 14.3 h, the “total protein half-life in vivo” value [9] is reported as 6.34 h and the “total protein half-life in vivo” value [11] is reported as 5.52 h.

In the case of “MNQTLLSSFGTPFERVENALAALREGRGVMVLDDEDRENEGDMIFPAETMTVEQMALTIRHGSGIVCLCITEDRRKQLDLPMMVENNTSAYGTGFTVTIEAAEGVTTGVSAADRITTVRAAIADGAKPSDLNRPGHVFPLRAQAGGVLTRGGHTEATIDLMTLAGFKPAGVLCELTNDDGTMARAPECIEFANKHNMALVTIEDLVAYRQAHERKAS [P0A7J0]”, the “total protein half-life in vivo” value [1] is reported as 5.39 ± 0.59 h, the “total protein half-life in vivo” value [2] is reported as 4.61 ± 0.68 h and the “total protein half-life in vivo” value [3] is reported as 1.27 ± 0.23 h. For the same sequence, the “total protein half-life in vivo” value [4] was 1.22 ± 0.28 h, the “total protein half-life in vivo” value [5] was 1.02 ± 0.1 h and the “total protein half-life in vivo” value [6] was 1.2 ± 0.25 h. For the same sequence, the “total protein half-life in vivo” value [7] was 1.2 ± 0.21 h, the “total protein half-life in vivo” value [8] was 1.35 ± 0.13 h and the “total protein half-life in vivo” value [9] was 1.291 ± 0.0046 h. The “total protein half-life in vivo” value [10] was 1.52 ± 0.086 h, the “total protein half-life in vivo” value [11] was 0.987 h and the “total protein half-life in vivo” value [12] was 1.82 ± 1.1 h.

With “MNQVAVVIGGGQTLGAFLCHGLAAEGYRVAVVDIQSDKAANVAQEINAEYGESMAYGFGADATSEQSVLALSRGVDEIFGRVDLLVYSAGIAKAAFISDFQLGDFDRSLQVNLVGYFLCAREFSRLMIRDGIQGRIIQINSKSGKVGSKHNSGYSAAKFGGVGLTQSLALDLAEYGITVHSLMLGNLLKSPMFQSLLPQYATKLGIKPDQVEQYYIDKVPLKRGCDYQDVLNMLLFYASPKASYCTGQSINVTGGQVMF” the “total protein half-life in vivo” value [1] was 4.14 h, the “total protein half-life in vivo” value [6] was 1.19 ± 0.41 h and the “total protein half-life in vivo” value [8] was 1.43 h.

With “MNRTILVPIDISDSELTQRVISHVEEEAKIDDAEVHFLTVIPSLPYYASLGLAYSAELPAMDDLKAEAKSQLEEIIKKFKLPTDRVHVHVEEGSPKDRILELAKKIPAHMIIIASHRPDITTYLLGSNAAAVVRHAECSVLVVR” the “total protein half-life in vivo” value [1] was 5.69 ± 1.3 h, the “total protein half-life in vivo” value [2] was 4.76 ± 0.38 h and the “total protein half-life in vivo” value [3] was 6.17 ± 2.1 h. For the same sequence, the “total protein half-life in vivo” value [4] was 3.98 ± 0.51 h, the “total protein half-life in vivo” value [5] was 4.47 ± 0.24 h and the “total protein half-life in vivo” value [6] was 3.61 ± 0.042 h. The “total protein half-life in vivo” value [7] was 5.75 ± 0.62 h, the “total protein half-life in vivo” value [8] was 10.3 ± 1.1 h and the “total protein half-life in vivo” value [9] was 4.7255 ± 0.0038 h. For the same sequence, the “total protein half-life in vivo” value [10] was 7.83 ± 0.48 h, the “total protein half-life in vivo” value [11] was 5.521 ± 0.026 h and the “total protein half-life in vivo” value [12] was 9.62 ± 1 h.

With “MNRWENIQLTHENRLAPRAYFFSYDSVAQARTFARETSSLFLPLSGQWNFHFFDHPLQVPEAFTSELMADWGHITVPAMWQMEGHGKLQYTDEGFPFPIDVPFVPSDNPTGAYQRIFTLSDGWQGKQTLIKFDGVETYFEVYVNGQYVGFSKGSRLTAEFDISAMVKTGDNLLCVRVMQWADSTYVEDQDMWWSAGIFRDVYLVGKHLTHINDFTVRTDFDEAYCDATLSCEVVLENLAASPVVTTLEYTLFDGERVVHSSAIDHLAIEKLTSASFAFTVEQPQQWSAESPYLYHLVMTLKDANGNVLEVVPQRVGFRDIKVRDGLFWINNRYVMLHGVNRHDNDHRKGRAVGMDRVEKDLQLMKQHNINSVRTAHYPNDPRFYELCDIYGLFVMAETDVESHGFANVGDISRITDDPQWEKVYVERIVRHIHAQKNHPSIIIWSLGNESGYGCNIRAMYHAAKALDDTRLVHYEEDRDAEVVDIISTMYTRVPLMNEFGEYPHPKPRIICEYAHAMGNGPGGLTEYQNVFYKHDCIQGHYVWEWCDHGIQAQDDHGNVWYKFGGDYGDYPNNYNFCLDGLIYSDQTPGPGLKEYKQVIAPVKIHARDLTRGELKVENKLWFTTLDDYTLHAEVRAEGETLATQQIKLRDVAPNSEAPLQITLPQLDAREAFLNITVTKDSRTRYSEAGHPIATYQFPLKENTAQPVPFAPNNARPLTLEDDRLSCTVRGYNFAITFSKMSGKPTSWQVNGESLLTREPKINFFKPMIDNHKQEYEGLWQPNHLQIMQEHLRDFAVEQSDGEVLIISRTVIAPPVFDFGMRCTYIWRIAADGQVNVALSGERYGDYPHIIPCIGFTMGINGEYDQVAYYGRGPGENYADSQQANIIDIWRSTVDAMFENYPFPQNNGNRQHVRWTALTNRHGNGLLVVPQRPINFSAWHYTQENIHAAQHCNELQRSDDITLNLDHQLLGLGSNSWGSEVLDSWRVWFRDFSYGFTLLPVSGGEATAQSLASYEFGAGFFSTNLHSENKQ” the “total protein half-life in vivo” value [6] was 3.17 ± 0.0082 h, the “total protein half-life in vivo” value [7] was 5.26 ± 0.23 h and the “total protein half-life in vivo” value [8] was 12.4 ± 2 h.

In the case of “MNSCDFRVFLQEFGTTVHLSLPGSVSEKERLLLKLLMQGMSVTEISQYRNRSAKTISHQKKQLFEKLGIQSDITFWRDIFFQYNPEIISATGSNSHRYINDNHYHHIVTPEAISLALENHEFKPWIQPVFCAQTGVLTGCEVLVRWEHPQTGIIPPDQFIPLAESSGLIVIMTRQLMKQTADILMPVKHLLPDNFHIGINVSAGCFLAAGFEKECLNLVNKLGNDKIKLVLELTERNPIPVTPEARAIFDSLHQHNITFALDDFGTGYATYRYLQAFPVDFIKIDKSFVQMASVDEISGHIVDNIVELARKPGLSIVAEGVETQEQADLMIGKGVHFLQGYLYSPPVPGNKFISEWVMKAGG”, the “total protein half-life in vivo” value [1] is reported as 6.19 ± 0.079 h, the “total protein half-life in vivo” value [2] is reported as 5.64 ± 0.26 h and the “total protein half-life in vivo” value [5] is reported as 5.76 ± 0.27 h. The “total protein half-life in vivo” value [6] was 3.346 ± 0.027 h, the “total protein half-life in vivo” value [7] was 5.06 ± 0.71 h and the “total protein half-life in vivo” value [8] was 10.4 ± 2.6 h. The “total protein half-life in vivo” value [9] was 5.94 ± 0.41 h, the “total protein half-life in vivo” value [10] was 10.9 ± 0.36 h and the “total protein half-life in vivo” value [11] was 5.76 ± 0.1 h. For the same sequence, the “total protein half-life in vivo” value [12] was 12.3 ± 1.1 h.
